According to US11813311B2, “Treatment and prevention of metabolic diseases” (Singapore Health Services PTE LTD., priority 2019, dated 2023):
“Also recorded” adds a separate entry of the source.

How the values were obtained:
[1] = system: primary human hepatocytes; test: Palmitate loading (lipotoxicity) of primary human hepatocytes; format: cell-based; conditions: palmitate:BSA 6:1
Protocol: Palmitate:BSA conjugated solution in the ratio of 6:1 was prepared as described earlier (Alsabeeh et al., 2018). Palmitate (0.5 mM) conjugated in fatty acids free BSA was used to treated cells as described in figure legends; 0.5% BSA solution was used as control. […]
Primary human hepatocytes were seeded on 8-well chamber slides (1×10^4 cells/well). For this experiment, cells were not serum-starved prior to palmitate treatment. 24 hours following palmitate stimulation, cells were washed, incubated with 25 μM of DCFDA solution (ab113851, Abcam) for 45 minutes at 37° C. in the dark, and rinsed with dilution buffer according to the manufacturer's protocol. Live cells with positive DCF staining were imaged with filter set appropriate for fluorescein (FITC) using a fluorescence microscope (Leica). […]
(§1) Western blots were carried out on total protein extracts from hepatocytes and liver tissues. Hepatocyte and liver tissue lysates were homogenized in RIPA Lysis and Extraction Buffer (89901, Thermo Scientific) containing protease and phosphatase inhibitors (Roche). Protein lysates were separated by SDS-PAGE and transferred to PVDF membranes. Protein bands were visualized using the ECL detection system (Pierce) with the appropriate secondary antibodies: anti-rabbit HRP or anti-mouse HRP.

[2] = system: HSCs; test: IL-11 expression and secretion by HSCs (RNA-seq, ELISA); format: cell-based, human; conditions: for IL-11 secretion from HSCs: ELISA
Description: TGFβ1 stimulation of human hepatic stellate cells and antibody treatment in HFMCD: Sequenced libraries were demultiplexed using bcl2fastq v2.19.0.316 with the-no-lane-splitting option. Adapter sequences were then trimmed using trimmomatic^6 v0.36 in paired end mode with the options MAXINFO:35:0.5 MINLEN:35. Trimmed reads were aligned to the Homo sapiens GRCh38 using STAR′ v. 2.2.1 with the options—outFilterType BySJout-outFilterMultimapNmax 20-alignSJoverhangMin 8-alignSJDBoverhangMin 1-outFilterMismatchNmax 999-alignIntronMin 20-alignIntronMax 1000000-alignMatesGapMax 1000000 in paired end, single pass mode. Only unique alignments were retained for counting. Counts were calculated at the gene level using the FeatureCounts module from subread^8v. 1.5.1, with the options -O-s 2-J-T 8-p-R-G. The Ensembl release 86 hg38 GTF was used as annotation to prepare STAR indexes and for FeatureCounts.
The levels of IL-11 and MMP-2 in equal volumes of cell culture media were quantified using Human IL-11 Quantikine ELISA kit (D1100, R&D Systems) and Total MMP-2 Quantikine ELISA kit (MMP200, R&D Systems), respectively. Total secreted collagen in the cell culture supernatant was quantified using Sirius red collagen detection kit (9062, Chondrex). Total hydroxyproline content in the livers was measured using Quickzyme Total Collagen assay kit (Quickzyme Biosciences). Mouse serum levels of alanine aminotransferease (ALT), cholesterol, and triglycerides were measured using Alanine Transaminase Activity Assay Kit (ab105134, abcam), Cholesterol Assay Kit (ab65390, abcam), and Triglyceride Assay Kit (ab65336, abcam), respectively. Liver Triglycerides (TG) measurements were performed using triglyceride colorimetric assay kit (Ser. No. 10/010,303, Cayman). All ELISA and colorimetric assays were performed according to the manufacturer's protocol.

[3] = system: primary human hepatocytes; test: Stimulation of primary human hepatocytes with IL11, hyperIL11, hyperIL6; format: cell-based; conditions: for ERK and JNK (non-canonical signaling) activation: 2.5 ng/ml to 20 ng/ml
Protocol: Human hepatocytes (5200, ScienCell) were grown and maintained in hepatocyte media (5201, ScienCell) supplemented with 2% fetal bovine serum (FBS) and 1% Penicillin-streptomycin.
Primary human hepatocytes (5200, ScienCell) were maintained in hepatocyte medium ([…], ScienCell) supplemented with 2% fetal bovine serum, 1% Penicillin-streptomycin at 37° C. and 5% CO2. Hepatocytes (P2-P3) were serum-starved overnight unless otherwise specified in the methods prior to 24 hours stimulation with different doses of various recombinant proteins as described.
For surface IL11RA, IL6R, and gp130 analysis, primary human hepatocytes and THP-1 cells were stained with IL11RA, IL6R, or gp130 antibody and the corresponding Alexa Fluor 488 secondary antibody. Cell death analysis was performed by staining primary human hepatocytes with Dead Cell Apoptosis Kit with Annexin V FITC and PI (V13242, Thermo Fisher). PI+ve cells were then quantified with the flow cytometer (Fortessa, BD Biosciences) and analyzed with FlowJo version X software (TreeStar).
Alanine Aminotransferase (ALT) activity in the cell culture supernatant and mouse serum was measured using ALT Activity Assay Kit (ab105134, Abcam). Liver Glutathione (GSH) levels were measured using Glutathione Colorimetric Detection Kit (EIAGSHC, Thermo Fisher). Total hydroxyproline content in mouse livers was measured using Quickzyme Total Collagen assay kit (QZBtotco15, Quickzyme Biosciences). The levels of serum and liver triglycerides were measured using Triglyceride Assay Kit (ab65336, Abcam). Mouse serum levels of Aspartate Aminotransferase (AST) and cholesterol were measured using AST Assay Kit (ab105135, Abcam) and Cholesterol Assay Kit (ab65390; Abcam), respectively. All colorimetric assays were performed according to the manufacturer's protocol.
as §1

[4] = system: wild-type C57BL/6J and Col1a1-GFP reporter mice; test: Daily subcutaneous injection of recombinant mouse IL-11; format: in vivo
Protocol: Recombinant mouse IL-11 (rmIL11) was reconstituted to a concentration of 50 μg ml^−1 in saline. Ten-week-old male wild-type C57BL/6J mice received daily subcutaneous injection of either 100 μg kg^−1 of rmIL11 in saline (n=19) or an identical volume of saline (n=15) for 21 days.
Ten week old male Col1a1-GFP reporter mice 19 and wild-type C57BL/6J mice received daily subcutaneous injection of either 100 μg/kg of recombinant mouse Il-11 (rmIl-11) or identical volume of saline for 21 days.

Molecule: CCCCCCCCCCCCCCCC(=O)O [palmitate, Palmitate, reference compound]
- IL11 secretion, FC vs control [1]: 28

Molecule: CCL2: human CCL2 recombinant protein, NASH stimulus
- IL-11 secretion from HSCs [2]: induce IL-11 secretion

Molecule: PDGF
- IL-11 secretion from HSCs [2]: induce IL-11 secretion

Molecule: TGFβ1: human TGFβ1 recombinant protein, pro-fibrotic stimulus [reference compound]
- IL-11 secretion from hepatocytes ([3]; TGFβ1 5 ng/ml, 24 h): robustly secreted IL-11
- IL-11 upregulation in HSCs (RNA-seq) ([2]; TGFβ1 5 ng/ml, 24 h): 14.9 fold

Molecule: angiotensin II: human angiotensin (Sigma-Aldrich), NASH stimulus (DRVYIHPF; Angiotensin-2; UniProt P01019 25-32, looked up)
- IL-11 secretion from HSCs [2]: induce IL-11 secretion

Molecule: bFGF: human bFGF recombinant protein, NASH stimulus
- IL-11 secretion from HSCs [2]: induce IL-11 secretion

Molecule: hyperIL6: IL6R:IL6 fusion protein, synthetic IL6 trans-signaling construct (R&D systems) [reference compound]
- ERK and JNK (non-canonical signaling) activation ([3]; 24 h): did not activate
- ALT in the media, fold change (FC) ([3]; 20 ng/ml): 0.9
- STAT3 activation ([3]; dose range, 24 h): dose-dependently induced STAT3 activation

B1: sIL11RA: soluble IL11RA, human IL11RA (R&D systems), to potentiate putative trans-signaling (protein, UniProt Q14626 24-370, looked up)
extracellular domain: SPCPQAWGPPGVQYGQPGRSVKLCCPGVTAGDPVSWFRDGEPKLLQGPDSGLGHELVLAQADSTDEGTYICQTLDGALGGTVTLQLGYPPARPVVSCQAADYENFSCTWSPSQISGLPTRYLTSYRKKTVLGADSQRRSPSTGPWPCPQDPLGAARCVVHGAEFWSQYRINVTEVNPLGASTRLLDVSLQSILRPDPPQGLRVESVPGYPRRLRASWTYPASWPCQPHFLLKFRLQYRPAQHPAWSTVEPAGLEEVITDAVAGLPHAVRVSARDFLDAGTWSTWSPEAWGTPSTGTIPKEIPAWGQLHTQPEVEPQVDSPAPPRPSLQPHPRLLDHRDSVEQVAVLA
modifications: extracellular domain
- IL11-induced hepatocyte death and signaling ([3]; IL11 20 ng/ml, sgp130 or sIL11RA 1 μg/ml): unaffected
- ALT release from IL11-stimulated hepatocytes ([3]; increasing doses of sgp130 or sIL11RA): no effect
- IL11 dose-dependent hepatocyte cell death on addition of decoy ([3]; sgp130 or sIL11RA 1 μg/ml): unaffected

B2: rmIL11: Recombinant mouse IL-11 (UniProtKB: P47873) (protein)
chain: PGPPAGSPRVSSDPRADLDSAVLLTRSLLADTRQLAAQMRDKFPADGDHSLDSLPTLAMSAGTLGSLQLPGVLTRLRVDLMSYLRHVQWLRRAGGPSLKTLEPELGALQARLERLLRRLQLLMSRLALPQAAPDQPVIPLGPPASAWGSIRAAHAILGGLHLTLDWAVRGLLLLKTRL
- expression of key pro-fibrotic and pro-inflammatory genes ([4]; 100 μg/kg daily s.c., 21 days): increased
- hepatic collagen content ([4]; 100 μg/kg daily s.c., 21 days): increased
- serum alanine aminotransferase (ALT) ([4]; 100 μg/kg daily s.c., 21 days): increased
- weight gain ([4]; 100 μg/kg daily s.c., 21 days, vs saline): slowed normal mouse weight gain progression; also recorded: gained less weight
- Col1a1+ve myofibroblasts in the liver ([4]; Col1a1-GFP reporter mice): accumulated GFP-expressing Col1a1^+ve myofibroblasts in the liver

B3: hyperIL11: IL11RA:IL11 fusion protein mimicking the trans-signalling complex, SEQ ID NO:21 (protein)
chain: MSSSCSGLSRVLVAVATALVSASSPCPQAWGPPGVQYGQPGRSVKLCCPGVTAGDPVSWFRDGEPKLLQGPDSGLGHELVLAQADSTDEGTYICQTLDGALGGTVTLQLGYPPARPVVSCQAADYENFSCTWSPSQISGLPTRYLTSYRKKTVLGADSQRRSPSTGPWPCPQDPLGAARCVVHGAEFWSQYRINVTEVNPLGASTRLLDVSLQSILRPDPPQGLRVESVPGYPRRLRASWTYPASWPCQPHFLLKFRLQYRPAQHPAWSTVEPAGLEEVITDAVAGLPHAVRVSARDFLDAGTWSTWSPEAWGTPSTGPAGQSGGGGGSGGGSGGGSVPGPPPGPPRVSPDPRAELDSTVLLTRSLLADTRQLAAQLRDKFPADGDHNLDSLPTLAMSAGALGALQLPGVLTRLRADLLSYLRHVQWLRRAGGSSLKTLEPELGTLQARLDRLLRRLQLLMSRLALPQPPPDPPAPPLAPPSSAWGGIRAAHAILGGLHLTLDWAVRGLLLLKTRL
modifications: Hyper IL-11 (IL-11RAIL-11 fusion)
- ERK and JNK (non-canonical signaling) activation ([3]; 24 h): activated ERK and JNK in a dose-dependent manner
- alanine transaminase (ALT) in the media ([3]; dose range, 24 h): dose-dependent increase
- IL-11 secretion from HSCs [2]: secreted IL-11
